From patent US8541373B2, “BChE albumin fusions for the treatment of cocaine abuse” (priority 2009, dated 2013)

Tested on: cocaine
Experiment: Plasma cocaine, benzoylecgonine and ecgonine methyl ester (LC-MS) and cocaine PK after IV cocaine post-AlbuBChE
Type: in vivo, cynomolgus monkeys
Conditions: 0.2 mg/kg IM
Procedure: Blood was placed into K2EDTA blood collection tubes with esterase inhibitor diisopropylfluorophosphate (DFP). Tubes were inverted several times and placed on wet ice upon collection. Samples were centrifuged at 2-8° C. within 45 minutes of collection. The resultant plasma was recovered and a single 200 μL aliquot of plasma was placed into polypropylene tubes. Plasma samples were frozen over dry ice and stored at −75±15° C.
The following outline describes the LC-MS-based assay employed for the measurement of cocaine in plasma samples. Prior to MS analysis, plasma samples, calibration standards and controls were extracted using supported liquid extraction (SLE-ISOLUTE, Biotage). Twenty-five microliters of samples (25 μL) received 150 μl of 5% Ammonium hydroxide and 25 μl internal standard solution (Cocaine-d3). After mixing and transfer to SLE plate, samples were eluted with methylene chloride and evaporated to dryness. After resuspension in 50 μl of reconstitution solution—5% ACM in 10 mM ammonium acetate in water, 10 μl was injected onto Thermo Hypercarb column at 0.5 ml/min. Mobile phase was biphasic. Mass spectrophotometric detection was performed using Api 4000, APCI positive interface and Multiple Reaction Monitoring (MRM). Plasma concentrations of cocaine, benzoylecgonine and ecgonine methyl ester were determined using this assay.
When the data permits, pharmacokinetic parameter values for cocaine and its metabolites were determined using plasma concentration-times profiles for individual animals at all the study days of cocaine administration. […] Specifically the model for non-compartmental analysis with IV bolus input for cocaine and extravascular input for the metabolites.

[1] = cocaine 1 mg/kg IV 2 hr post-AlbuBChE
[2] = cocaine 1 mg/kg IV 2 hr post-AlbuBChE, 5 min after cocaine
[3] = cocaine 1 mg/kg IV 2 hr post-AlbuBChE, 10 min after cocaine
[4] = cocaine 1 mg/kg IV 2 hr post-AlbuBChE, 15 min after cocaine
[5] = cocaine 1 mg/kg IV 2 hr post-AlbuBChE, 20 min after cocaine
[6] = cocaine 1 mg/kg IV 2 hr post-AlbuBChE, 30 min after cocaine
[7] = cocaine 1 mg/kg IV 2 hr post-AlbuBChE, 40 min after cocaine
[8] = cocaine 1 mg/kg IV 2 hr post-AlbuBChE, 60 min after cocaine
[9] = cocaine 1 mg/kg IV 48 hr post-AlbuBChE
[10] = cocaine 1 mg/kg IV 48 hr post-AlbuBChE, 5 min after cocaine
[11] = cocaine 1 mg/kg IV 48 hr post-AlbuBChE, 10 min after cocaine
[12] = cocaine 1 mg/kg IV 48 hr post-AlbuBChE, 15 min after cocaine
[13] = cocaine 1 mg/kg IV 48 hr post-AlbuBChE, 20 min after cocaine
[14] = cocaine 1 mg/kg IV 48 hr post-AlbuBChE, 30 min after cocaine
[15] = cocaine 1 mg/kg IV 48 hr post-AlbuBChE, 40 min after cocaine
[16] = cocaine 1 mg/kg IV 48 hr post-AlbuBChE, 60 min after cocaine
[17] = cocaine 1 mg/kg IV 96 hr post-AlbuBChE
[18] = cocaine 1 mg/kg IV 96 hr post-AlbuBChE, 5 min after cocaine
[19] = cocaine 1 mg/kg IV 96 hr post-AlbuBChE, 10 min after cocaine
[20] = cocaine 1 mg/kg IV 96 hr post-AlbuBChE, 15 min after cocaine
[21] = cocaine 1 mg/kg IV 96 hr post-AlbuBChE, 20 min after cocaine
[22] = cocaine 1 mg/kg IV 96 hr post-AlbuBChE, 30 min after cocaine
[23] = cocaine 1 mg/kg IV 96 hr post-AlbuBChE, 40 min after cocaine
[24] = cocaine 1 mg/kg IV 96 hr post-AlbuBChE, 60 min after cocaine
[25] = cocaine 1 mg/kg IV 120 hr post-AlbuBChE
[26] = cocaine 1 mg/kg IV 120 hr post-AlbuBChE, 5 min after cocaine
[27] = cocaine 1 mg/kg IV 120 hr post-AlbuBChE, 10 min after cocaine
[28] = cocaine 1 mg/kg IV 120 hr post-AlbuBChE, 15 min after cocaine
[29] = cocaine 1 mg/kg IV 120 hr post-AlbuBChE, 20 min after cocaine
[30] = cocaine 1 mg/kg IV 120 hr post-AlbuBChE, 30 min after cocaine

AlbuBChE
Mean benzoylecgonine AUC(0-t) [1]: 3136 ng·min/mL | Mean cocaine AUC(0-t) [1]: 11878 ng·min/mL | Mean cocaine C0 [1]: 628 ng/mL | Ecgonine methyl ester plasma concentration (mean) [2]: 51.6 ng/mL | Mean benzoylecgonine plasma concentration [2]: 50.6 ng/mL | Mean cocaine plasma concentration [2]: 481 ng/mL | Ecgonine methyl ester plasma concentration (mean) [3]: 81.9 ng/mL | Mean benzoylecgonine plasma concentration [3]: 49.7 ng/mL | Mean cocaine plasma concentration [3]: 370 ng/mL | Ecgonine methyl ester plasma concentration (mean) [4]: 83.2 ng/mL | Mean benzoylecgonine plasma concentration [4]: 50.4 ng/mL | Mean cocaine plasma concentration [4]: 273 ng/mL | Ecgonine methyl ester plasma concentration (mean) [5]: 154 ng/mL | Mean benzoylecgonine plasma concentration [5]: 65.1 ng/mL | Mean cocaine plasma concentration [5]: 227 ng/mL | Ecgonine methyl ester plasma concentration (mean) [6]: 261 ng/mL | Mean benzoylecgonine plasma concentration [6]: 28.6 ng/mL | Mean cocaine plasma concentration [6]: 67.0 ng/mL | Ecgonine methyl ester plasma concentration (mean) [7]: 120 ng/mL | Mean benzoylecgonine plasma concentration [7]: 58.0 ng/mL | Mean cocaine plasma concentration [7]: 115 ng/mL | Ecgonine methyl ester plasma concentration (mean) [8]: 120 ng/mL | Mean benzoylecgonine plasma concentration [8]: 60.5 ng/mL | Mean cocaine plasma concentration [8]: 58.6 ng/mL | Mean benzoylecgonine AUC(0-t) [9]: 1989 ng·min/mL | Mean cocaine AUC % Extrap [9]: 15.1% | Mean cocaine AUC(0-t) [9]: 7713 ng·min/mL | Mean cocaine AUC(0-∞) [9]: 9094 ng·min/mL | Mean cocaine C0 [9]: 274 ng/mL | Mean cocaine CI [9]: 110 mL/min/kg | Mean cocaine Vss [9]: 3503 mL/kg | Mean cocaine t½ [9]: 21.2 min | Ecgonine methyl ester plasma concentration (mean) [10]: 21.1 ng/mL | Mean benzoylecgonine plasma concentration [10]: 27.3 ng/mL | Mean cocaine plasma concentration [10]: 235 ng/mL | Ecgonine methyl ester plasma concentration (mean) [11]: 19.5 ng/mL | Mean benzoylecgonine plasma concentration [11]: 29.4 ng/mL | Mean cocaine plasma concentration [11]: 203 ng/mL | Ecgonine methyl ester plasma concentration (mean) [12]: 23.9 ng/mL | Mean benzoylecgonine plasma concentration [12]: 29.0 ng/mL | Mean cocaine plasma concentration [12]: 187 ng/mL | Ecgonine methyl ester plasma concentration (mean) [13]: 25.8 ng/mL | Mean benzoylecgonine plasma concentration [13]: 28.2 ng/mL | Mean cocaine plasma concentration [13]: 146 ng/mL | Ecgonine methyl ester plasma concentration (mean) [14]: 33.9 ng/mL | Mean benzoylecgonine plasma concentration [14]: 37.1 ng/mL | Mean cocaine plasma concentration [14]: 121 ng/mL | Ecgonine methyl ester plasma concentration (mean) [15]: 50.7 ng/mL | Mean benzoylecgonine plasma concentration [15]: 36.9 ng/mL | Mean cocaine plasma concentration [15]: 77.8 ng/mL | Ecgonine methyl ester plasma concentration (mean) [16]: 37.0 ng/mL | Mean benzoylecgonine plasma concentration [16]: 35.6 ng/mL | Mean cocaine plasma concentration [16]: 43.2 ng/mL | Mean benzoylecgonine AUC(0-t) [17]: 3270 ng·min/mL | Mean cocaine AUC % Extrap [17]: 14.9% | Mean cocaine AUC(0-t) [17]: 11145 ng·min/mL | Mean cocaine AUC(0-∞) [17]: 13008 ng·min/mL | Mean cocaine C0 [17]: 451 ng/mL | Mean cocaine CI [17]: 78.1 mL/min/kg | Mean cocaine Vss [17]: 2506 mL/kg | Mean cocaine t½ [17]: 21.1 min | Ecgonine methyl ester plasma concentration (mean) [18]: 26.4 ng/mL | Mean benzoylecgonine plasma concentration [18]: 49.7 ng/mL | Mean cocaine plasma concentration [18]: 360 ng/mL | Ecgonine methyl ester plasma concentration (mean) [19]: 39.4 ng/mL | Mean benzoylecgonine plasma concentration [19]: 47.7 ng/mL | Mean cocaine plasma concentration [19]: 301 ng/mL | Ecgonine methyl ester plasma concentration (mean) [20]: 24.5 ng/mL | Mean benzoylecgonine plasma concentration [20]: 52.6 ng/mL | Mean cocaine plasma concentration [20]: 255 ng/mL | Ecgonine methyl ester plasma concentration (mean) [21]: 29.8 ng/mL | Mean benzoylecgonine plasma concentration [21]: 55.1 ng/mL | Mean cocaine plasma concentration [21]: 189 ng/mL | Ecgonine methyl ester plasma concentration (mean) [22]: 49.8 ng/mL | Mean benzoylecgonine plasma concentration [22]: 56.5 ng/mL | Mean cocaine plasma concentration [22]: 165 ng/mL | Ecgonine methyl ester plasma concentration (mean) [23]: 50.2 ng/mL | Mean benzoylecgonine plasma concentration [23]: 55.2 ng/mL | Mean cocaine plasma concentration [23]: 118 ng/mL | Ecgonine methyl ester plasma concentration (mean) [24]: 43.4 ng/mL | Mean benzoylecgonine plasma concentration [24]: 57.8 ng/mL | Mean cocaine plasma concentration [24]: 60.5 ng/mL | Mean benzoylecgonine AUC(0-t) [25]: 3583 ng·min/mL | Mean cocaine AUC % Extrap [25]: 16.1% | Mean cocaine AUC(0-t) [25]: 11611 ng·min/mL | Mean cocaine AUC(0-∞) [25]: 14059 ng·min/mL | Mean cocaine C0 [25]: 391 ng/mL | Mean cocaine CI [25]: 72.5 mL/min/kg | Mean cocaine Vss [25]: 2338 mL/kg | Mean cocaine t½ [25]: 23.0 min | Ecgonine methyl ester plasma concentration (mean) [26]: 18.9 ng/mL | Mean benzoylecgonine plasma concentration [26]: 55.1 ng/mL | Mean cocaine plasma concentration [26]: 349 ng/mL | Ecgonine methyl ester plasma concentration (mean) [27]: 28.9 ng/mL | Mean benzoylecgonine plasma concentration [27]: 46.9 ng/mL | Mean cocaine plasma concentration [27]: 312 ng/mL | Ecgonine methyl ester plasma concentration (mean) [28]: 27.6 ng/mL | Mean benzoylecgonine plasma concentration [28]: 53.1 ng/mL | Mean cocaine plasma concentration [28]: 267 ng/mL | Ecgonine methyl ester plasma concentration (mean) [29]: 34.5 ng/mL | Mean benzoylecgonine plasma concentration [29]: 55.9 ng/mL | Mean cocaine plasma concentration [29]: 218 ng/mL | Ecgonine methyl ester plasma concentration (mean) [30]: 136 ng/mL | Mean benzoylecgonine plasma concentration [30]: 64.2 ng/mL | Mean cocaine plasma concentration [30]: 160 ng/mL
